Measured values: PMC8739950, “The MocR/GabR Ectoine and Hydroxyectoine Catabolism Regulator EnuR: Inducer and DNA Binding” (Frontiers in Microbiology, 2021)
Where two headings read alike, the source gives them in different places.

Key:
[1] = target: T1, EnuR (Ruegeria pomeroyi, UniProt Q5LUA6); assay: microscale thermophoresis; format: binding
T1 construct: gene gntR; full-length EnuR with C-terminal Strep-tag-II, PLP-containing
T1 sequence (Q5LUA6 1-464): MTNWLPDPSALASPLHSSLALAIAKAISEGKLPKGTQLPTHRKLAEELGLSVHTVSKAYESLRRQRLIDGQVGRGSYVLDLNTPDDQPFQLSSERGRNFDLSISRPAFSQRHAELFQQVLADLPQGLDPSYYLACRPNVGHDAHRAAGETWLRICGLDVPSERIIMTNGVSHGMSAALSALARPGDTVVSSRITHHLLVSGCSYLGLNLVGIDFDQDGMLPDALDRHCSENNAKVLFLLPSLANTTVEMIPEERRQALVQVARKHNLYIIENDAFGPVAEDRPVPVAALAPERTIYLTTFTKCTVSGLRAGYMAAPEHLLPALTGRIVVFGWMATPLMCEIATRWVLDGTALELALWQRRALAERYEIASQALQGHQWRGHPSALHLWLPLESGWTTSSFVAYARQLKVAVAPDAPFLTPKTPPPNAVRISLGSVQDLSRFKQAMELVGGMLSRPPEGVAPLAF

[2] = target: T2, EnuR (Ruegeria pomeroyi, UniProt Q5LUA6); assay: microscale thermophoresis; format: binding; remark: listed apart in the source
T2 construct: gene gntR; full-length EnuR with C-terminal Strep-tag-II, PLP-containing

[3] = target: C-terminal aminotransferase domain (ATD) of wild-type EnuR from Ruegeria pomeroyi DSS-3, Strep-tag II fusion (Ruegeria pomeroyi DSS-3); assay: SEC; HiLoad 16/600 Superdex 200 pg column; masses estimated against marker proteins (thyroglobulin, alcohol dehydrogenase, bovine albumin, carbonic anhydrase); quaternary assembly of the Strep-Tactin purified proteins
[4] = target: C-terminal aminotransferase domain of the EnuR* (Lys302His) mutant from Ruegeria pomeroyi DSS-3, Strep-tag II fusion (Ruegeria pomeroyi DSS-3); assay: as above
[5] = target: Ectoine nutrient utilization regulator (EnuR) from Ruegeria pomeroyi DSS-3, full-length wild type, EnuR-Strep-tag II (Ruegeria pomeroyi DSS-3); assay: as above
[6] = target: EnuR* (Lys302His) mutant of full-length EnuR from Ruegeria pomeroyi DSS-3, EnuR*-Strep-tag II (Ruegeria pomeroyi DSS-3); assay: as above
[7] = test system: EnuR (C-terminal Strep-tag II fusion, PLP-bound) (Ruegeria pomeroyi DSS-3); assay: MST; conditions: PLP-containing EnuR, 200 nM; MST: 10 mM Tris-HCl pH 7.5, 150 mM NaCl, 0.07% Tween20, 21 C; 200 nM NT-647-labeled EnuR titrated with DNA

`CC(=O)N[C@H](C(=O)O)[C@@H](O)CN` [hydroxy-α-ADABA] showed a Kd [1] of 0.43 ± 0.2 µM.
Work on `CC(=O)N[C@@H](CCN)C(=O)O` [α-ADABA] yielded a Kd [2] of 2.55 ± 0.5 µM.
With “C-terminal aminotransferase domain (ATD) of wild-type EnuR from Ruegeria pomeroyi DSS-3, Strep-tag II fusion (domain or fragment)” the stoichiometry N [3] was 2.
With “C-terminal aminotransferase domain of the EnuR* (Lys302His) mutant from Ruegeria pomeroyi DSS-3, Strep-tag II fusion (domain or fragment)” the stoichiometry N [4] was 2.
“Ectoine nutrient utilization regulator (EnuR) from Ruegeria pomeroyi DSS-3, full-length wild type, EnuR-Strep-tag II (natural protein)” was tested, and the stoichiometry N [5] was 2.
Work on “EnuR* (Lys302His) mutant of full-length EnuR from Ruegeria pomeroyi DSS-3, EnuR*-Strep-tag II (natural protein)” yielded a stoichiometry N [6] of 2.
“TAACATTGTCGCGCGACAATAAAAAAATTGACATGCAGTACAATTCCC (double strand) [MST BS WT 48 bp promoter/operator fragment]” was tested, and the Kd [7] was 1.9 µM.
